Experiments:
human AXL = molecular target: T1, human AXL (human, UniProt P30530 26-449, limits assumed); assay: not described (FIG. 6)
T1 construct: In the degradation, internalization and homodimerization experiments the receptor stood on the tumor cell surface; also called AXL receptor; human form of AXL
T1 sequence (looked up): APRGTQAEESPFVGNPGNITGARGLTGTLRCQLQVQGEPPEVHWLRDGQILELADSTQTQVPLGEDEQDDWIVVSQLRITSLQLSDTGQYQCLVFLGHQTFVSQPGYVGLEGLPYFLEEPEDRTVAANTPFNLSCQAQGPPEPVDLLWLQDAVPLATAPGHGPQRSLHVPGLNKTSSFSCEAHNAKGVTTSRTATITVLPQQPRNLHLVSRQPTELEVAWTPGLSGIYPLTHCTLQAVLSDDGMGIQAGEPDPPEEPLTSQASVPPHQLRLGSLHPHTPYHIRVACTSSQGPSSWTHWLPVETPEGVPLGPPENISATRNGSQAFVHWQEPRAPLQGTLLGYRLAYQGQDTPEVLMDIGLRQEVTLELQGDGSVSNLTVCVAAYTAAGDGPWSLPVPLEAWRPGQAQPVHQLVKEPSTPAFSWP

murine AXL = molecular target: T2, murine AXL (murine, UniProt Q00993 19-443, limits assumed); assay: not described (FIG. 6)
T2 construct: also called murine form of AXL
T2 sequence (looked up): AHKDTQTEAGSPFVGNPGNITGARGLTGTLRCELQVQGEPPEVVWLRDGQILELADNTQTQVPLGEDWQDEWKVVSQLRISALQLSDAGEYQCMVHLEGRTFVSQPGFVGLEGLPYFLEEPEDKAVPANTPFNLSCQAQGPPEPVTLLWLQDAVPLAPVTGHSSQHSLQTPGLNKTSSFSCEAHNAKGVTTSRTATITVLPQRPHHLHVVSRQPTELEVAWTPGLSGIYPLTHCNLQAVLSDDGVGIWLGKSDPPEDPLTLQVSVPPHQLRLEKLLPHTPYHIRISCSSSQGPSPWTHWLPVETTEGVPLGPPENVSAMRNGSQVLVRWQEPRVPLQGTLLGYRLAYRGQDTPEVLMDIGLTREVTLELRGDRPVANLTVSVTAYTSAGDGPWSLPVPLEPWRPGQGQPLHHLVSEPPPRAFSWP

B1: human monoclonal antibody D4 (antibody, V domains shown)
VH: EVQLVESGGSLVKPGGSLRLSCAASGFTFSNYSMNWVRQAPGKGLEWISSISGSSRYIYYADFVKGRFTISRDNATNSLYLQMNSLRAEDTAVYYCVRGRKDSGTIYHWGRGTLVTVSS
VL: QSVLTQPASVSGSPGQSITISCAGTSSDVGGYNYVSWYQQHPGKAPKLMIYEDSKRPSGVSNRFSGSKSGNTASLTISGLQAEDEADYYCKKDDYSLRFTFGGGTKLAVLG
notes: also called D4 antibody; D4 human monoclonal antibody
Human AXL
  binding result: binds
Murine AXL
  binding result: binds

— patent US20170340734A1 (INSERM INSTITUT NATIONAL DE LA SANT ET DE LA RECHERCHE M …, published 2017)
